For orientation: Kd means a measure of binding affinity in units of concentration. What is called koff is a measure of how fast the partners let go of each other. Read a low koff as a long-lived complex. Broadly, the kon is the rate constant with which the complex forms. Higher therefore signals fast association.

This note sets out measurements from paper PMC12455949 (Journal of Virology, 2025).

What all share (test): BLI
Common to all, as to conditions: both partners purified

For assay [1], the target named is A/Perth/16/2009 HA, recombinant soluble (rHA) (Influenza A virus A/Perth/16/2009 (H3N2), UniProt C6KNH7, strain).
Assay [2] addresses A/Texas/50/2012 HA, recombinant soluble (rHA) (Influenza A virus A/Texas/50/2012 (H3N2), UniProt R4L1D1, strain).
Assay [3] addresses COBRA HA NG2, recombinant soluble (rHA) (Influenza A virus H3, designed COBRA NG2).
Assay [4] deals with A/Panama/2007/1999 HA, recombinant soluble (rHA) (Influenza A virus A/Panama/2007/1999 …, UniProt Q1K9M3, strain).
Assay [5] addresses COBRA HA TJ2, recombinant soluble (rHA) (Influenza A virus H3, designed COBRA TJ2).
Assay [6] concerns the target A/Port Chalmers/1/1973 HA, recombinant soluble (rHA) (Influenza A virus A/Port …, UniProt Q1PUD9, strain).
The target of assay [7] is A/Switzerland/9715293/2013 HA, recombinant soluble (rHA) (Influenza A virus …, strain).
The target of assay [8] is COBRA HA J4, recombinant soluble (rHA) (Influenza A virus H3, designed COBRA J4).
Assay [9] deals with A/Victoria/361/2011 HA (Influenza A virus A/Victoria/361/2011 …, UniProt A0A097PF39, strain).
For assay [10], the target named is A/Texas/50/2012 HA (Influenza A virus A/Texas/50/2012 (H3N2), UniProt R4L1D1, strain).
The target of assay [11] is A/Switzerland/9715293/2013 HA (Influenza A virus …, strain).
The target of assay [12] is A/Panama/2007/1999 HA (Influenza A virus A/Panama/2007/1999 …, UniProt Q1K9M3, strain).
The target of assay [13] is A/Perth/16/2009 HA (Influenza A virus A/Perth/16/2009 (H3N2), UniProt C6KNH7, strain).
Assay [14] concerns the target A/Port Chalmers/1/1973 HA (Influenza A virus A/Port …, UniProt Q1PUD9, strain).
For assay [15], the target named is A/Victoria/361/2011 HA, recombinant soluble (rHA) (Influenza A virus A/Victoria/361/2011 …, UniProt A0A097PF39, strain).

“And” between values parts separate entries of the source, which are not always exact repeats. Equal entries are not always repeated.

B1: mAb #1664 (antibody, V domains shown)
VH: EVQVMQSGAEARMTGATVKISCKASGYTFSDYFLHWVKQAPGKGLEWMGLVDVDNGEVRYAEKFQGRVTITADTSTETAYLEMTTVTSGDTAVYYCASTTPRGGNPSVYNYFFVDVWGKGTTVTVSS
VL: QPVLTQSSSASASLGSSVKLTCTLSSGHDNYIIAWHQQQPGKAPRYLMQVGAGGTYNKGSGVPHRFSGSSSGADRYLTISNLQSDDEADYYCETWDSKTVFGGGTTLTVL
notes: copies: 2 + 2
With B1, the dissociation constant (Kd) in assay [1] is 420 pM and 200 pM; in assay [2], 730 pM and 1130 pM; in assay [3], 135000 pM and 143000 pM; in [4], 18200 pM and 14700 pM; in assay [5], 470 pM and 430 pM; in [7], 286000 pM and 222000 pM. The Kd in assay [8] is 12800 pM and 17700 pM. For the same molecule, in assay [6], the binding result is “no binding (tested: 1350 nM)”.

B2: mAb #1664 (antibody, V domains shown)
VH: B1 VH
VL: B1 VL
As for B2, the Kd in assay [9] amounted to 840 pM; in [10], 930 pM; in [11] it was 254000 pM; in [12], 16400 pM; in assay [13], 310 pM. Also, the koff in assay [9] turned out to be 8.98e-05 s⁻¹; in [10], 9.08e-05 s⁻¹; in [11] it was 0.00379 s⁻¹; in assay [12], 0.00179 s⁻¹; in assay [13], 3.36e-05 s⁻¹. Besides, the kon worked out at 119000 M⁻¹ s⁻¹ in assay [9]; 98300 M⁻¹ s⁻¹ in [10]; 15000 M⁻¹ s⁻¹ in [11]; 109000 M⁻¹ s⁻¹ in assay [12]; 108000 M⁻¹ s⁻¹ in [13]. Besides, in assay [14], the binding result is “no binding (tested: 100 nM rHA (exploratory assays))”.

B3: mAb TJ5-13 (antibody, V domains shown)
V domain 1: QVQLVQSGAEVKKPGSSVKVSCEASGDTFTTYSGINWVRQAPGQGLEWMGGVLPNFGSPNYAQRFQGRITITVDRSTSLVHMELTNLRSDDTAVYYCTETGAYNSVGYFPYFQFRGQGTLVSVSS
V domain 2: QSVLTQPPSVSGAPGQRVTISCTGSSSNIGADYDVHWYQQLPGTAPKLLIFGNNNRPSGVPDRFSGSKSGTSASLAITGLQAEDEADYYCQSFDKSLSGSFVFGTGTKVTGQ
As for B3, the Kd is 220 pM and 330 pM in [1]; 2340 pM and 6810 pM in assay [3]; 1880 pM and 3480 pM in assay [4]; 1320 pM and 2090 pM in [7]; 130 pM and 390 pM in assay [8]; 390 pM and 800 pM in assay [15]. Besides, the binding result in [6] is given as “no binding (tested: 1350 nM)”.

B4: mAb TJ5-13 (antibody, V domains shown)
V domain 1: B3 V domain 1
V domain 2: B3 V domain 2
B4: the Kd in assay [9] turned out to be 590 pM; in assay [10], 420 pM; in [11] it was 1710 pM; in [12], 1140 pM; in assay [13] it was 270 pM. The dissociation rate constant (koff) worked out at 0.000128 s⁻¹ in assay [9]; 9.53e-05 s⁻¹ in assay [10]; 0.000166 s⁻¹ in assay [11]; 0.000304 s⁻¹ in assay [12]; 6.03e-05 s⁻¹ in assay [13]. Also, the association rate constant (kon) in assay [9] turned out to be 218000 M⁻¹ s⁻¹; in assay [10] it was 257000 M⁻¹ s⁻¹; in [11] it was 98600 M⁻¹ s⁻¹; in assay [12] it was 114000 M⁻¹ s⁻¹; in [13], 226000 M⁻¹ s⁻¹. Moreover, the binding result in assay [14] was “no binding (tested: 100 nM rHA (exploratory assays))”.

B5: mAb TJ5-1 (antibody, V domains shown)
VH: EVQLVQSGAEVKKPGASVKVSCKASGYTFTGFYLHWVRQAPGQGLEWMGWINPHSGDTDFAQKFQGKVTMTRDTSSNTVYMDVNRLTSDDTAVYYCVKNDIVLGMGVWGQGTTVIVSS
VL: QSVLTQPPSVSGAPGQRVTISCTGSSSNIGAGYNVYWFQQLPPTAPKLLNYGDNNRPSGVPDRFSASKSGTSASLAITGLQAEDEAEYYCQSYDSSLNAYVFGTGTKVTVL
For the molecule B5, the Kd was 130 pM and 140 pM in assay [1]; 210 pM and 390 pM in assay [2]; 150 pM and 170 pM in assay [4]; 3280 pM and 8010 pM in assay [5]; 7130 pM and 13100 pM in [6]; 590 pM and 670 pM in [7]. The Kd was 300 pM and 160 pM in [8]; 620 pM and 1100 pM in assay [15].

B6: mAb TJ5-1 (antibody, V domains shown)
VH: B5 VH
VL: B5 VL
As for B6, the Kd came out at 860 pM in assay [9]; 300 pM in assay [10]; 630 pM in assay [11]; 160 pM in assay [12]; 140 pM in assay [13]. Moreover, the koff turned out to be 0.000195 s⁻¹ in [9]; 8.93e-05 s⁻¹ in assay [10]; 0.00019 s⁻¹ in assay [11]; 4.97e-05 s⁻¹ in [12]; 3.66e-05 s⁻¹ in assay [13]. For the same molecule, the kon is 228000 M⁻¹ s⁻¹ in assay [9]; 307000 M⁻¹ s⁻¹ in assay [10]; 303000 M⁻¹ s⁻¹ in assay [11]; 315000 M⁻¹ s⁻¹ in assay [12]; 266000 M⁻¹ s⁻¹ in assay [13].
